According to publication PMC7572793 (Immunity, 2020):

How the values were obtained:
Test in all cases: ELISA
peptide 29 = biological target: T1, peptide 29 (Plasmodium falciparum 3D7)
T1 chain: NANPNANPNANPNAN

(NANP)7 = biological target: T2, (NANP)7 (Plasmodium falciparum)
T2 chain: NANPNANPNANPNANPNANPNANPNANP

(NANP)3 = biological target: T3, (NANP)3 (Plasmodium falciparum)
T3 chain: NANPNANPNANP

(NANP)9 = biological target: T4, (NANP)9 (Plasmodium falciparum)
T4 chain: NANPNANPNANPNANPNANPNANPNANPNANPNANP

(NANP)5 = biological target: T5, (NANP)5 (Plasmodium falciparum)
T5 chain: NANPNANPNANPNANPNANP

(NANP)6 = biological target: T6, (NANP)6 (Plasmodium falciparum)
T6 chain: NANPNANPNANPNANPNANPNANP

(NANP)8 = biological target: T7, (NANP)8 (Plasmodium falciparum)
T7 chain: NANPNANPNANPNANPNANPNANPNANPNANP

Measured: binding result

B1: 311 (antibody, V domains shown)
VH: QVQLVESGGGVVPPGRSLRLSCATSGFTFSNYGMHWVRQAPGKGLEWVAIIWYDGSRNFYAASVEGRFTISRDNSKNTLYLQMNSLRVEDTAVYYCARAAYYDTSGYGDYWGQGTLVTVSS
VL: QSVLTQPPSVSGAPGQTVTISCTGGSSNIGAGYDVHWYQQLPGTAPKLLIYGNINRPSGVPDRFSGSKSGTSASLAITGLQAEDEADYYCQSYDRRLSGSWVFGGGTKLTVL
binds: peptide 29 | (NANP)7 | (NANP)3 | (NANP)9 | (NANP)5 | (NANP)6 | (NANP)8

B2: 317 (antibody, V domains shown)
VH: QMQLVESGGGVVQPGRSLRLSCTASGFTFSTYAMHWVRQSPGQGLQWVAVISYHSTNKYYEDSVRGRFTISRDNSKNTLYLQMNSLRAEDTAVYYCARDGYSSSFFDFWGQGTLVTVSS
VL: DIQMTQSPSTLSASVGDRVAITCRASQSISRWLAWYQQQPGKAPKLLMSGASVLESGVPSRFSGSGSGTEFTLTISSLQPDDFATYYCQHYNSYFVTFGQGTKVEIK
binds: peptide 29 | (NANP)7 | (NANP)3 | (NANP)9 | (NANP)5 | (NANP)8

B3: MGU12 (antibody, V domains shown)
VH: QVQLVESGGGVVQPGRSLRLSCAASGFSFSSYGMHWVRQAPGKGPEWVAVIWHDGSYSYYADSVRGRFTISRDNSKNTLYLQMNSLRPEDTGMYHCVKVEDYVRGSSHGGAFHIWGQGTMVTVSS
VL: DIQMTQSPSTLSASVGDRVTITCRASQTINNWLAWYQWKPGKAPELLIYKASSLESGVPSRFSGSGSGTEFTLTISSLQPDDFATYYCQQYSSYWTFGQGTKVDIK
binds: peptide 29 | (NANP)7 | (NANP)3 | (NANP)9 | (NANP)5 | (NANP)6 | (NANP)8

B4: 1210 (antibody, V domains shown)
VH: QVQLVESGGGVVQPGRSLRLSCAASGFTFSNYGMHWVRQAPGKGLEWVAVIWYDGSKKYYADSVKGRFTISRDNSKNTLYLQMNSLRAEDTAVYYCARVRDSSDYYGDAFDIWGQGTMVTVSS
VL: DIQMTQSPSTLSASVGDRVTITCRASQSISSWLAWYQQKPGKAPKLLIYKASNLESGVPLRFSGSGSGTEFTLTISSLQPDDFATYYCQQYNNYWTFGQGTKVEIK
binds: peptide 29 | (NANP)7 | (NANP)9 | (NANP)6 | (NANP)8

B5: CIS43 (antibody, V domains shown)
VH: QVQLVQSGAEVKKPGASVKVSCKASGYTFTSYAIHWVRQAPGQRLEWMGWIKAGNGNTRYSQKFQDRVTITRDTSTTTAYMELSSLRSEDTAVYYCALLTVLTPDDAFDIWGQGTMVTVSS
VL: not shown
binds: (NANP)9
